This is an account of results in US20240116985A1 (published 2024).

T1: full-length beta-Catenin (Uniprot ID P35222) (Homo sapiens (Human), UniProt P35222 1-781)
T1 construct: also called bCat; B-Catenin
T1 sequence: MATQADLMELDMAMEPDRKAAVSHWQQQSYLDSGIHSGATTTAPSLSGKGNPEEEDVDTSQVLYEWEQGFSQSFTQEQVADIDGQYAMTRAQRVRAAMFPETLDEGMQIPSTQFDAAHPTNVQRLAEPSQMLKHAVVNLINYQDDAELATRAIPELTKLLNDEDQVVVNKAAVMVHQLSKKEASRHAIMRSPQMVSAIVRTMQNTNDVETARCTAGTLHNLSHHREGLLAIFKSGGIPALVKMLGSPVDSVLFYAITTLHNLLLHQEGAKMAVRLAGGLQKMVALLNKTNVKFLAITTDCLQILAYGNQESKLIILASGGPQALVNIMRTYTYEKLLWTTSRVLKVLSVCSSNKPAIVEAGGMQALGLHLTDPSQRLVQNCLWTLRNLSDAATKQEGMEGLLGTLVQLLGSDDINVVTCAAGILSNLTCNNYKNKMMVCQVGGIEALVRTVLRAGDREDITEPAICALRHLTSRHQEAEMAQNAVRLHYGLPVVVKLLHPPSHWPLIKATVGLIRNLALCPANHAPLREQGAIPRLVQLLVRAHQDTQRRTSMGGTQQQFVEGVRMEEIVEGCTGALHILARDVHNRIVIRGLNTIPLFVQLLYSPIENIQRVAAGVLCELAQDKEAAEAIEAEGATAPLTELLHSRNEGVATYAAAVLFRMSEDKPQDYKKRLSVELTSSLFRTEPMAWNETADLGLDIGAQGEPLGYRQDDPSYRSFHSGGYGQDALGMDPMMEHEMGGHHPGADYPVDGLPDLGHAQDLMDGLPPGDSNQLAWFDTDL

T2: full-length beta-Catenin (Uniprot ID P35222) (Homo sapiens (Human), UniProt P35222 2-781)
T2 construct: Tags of the recombinant protein are not described for the FP assay; also called bCat; B-Catenin
T2 sequence: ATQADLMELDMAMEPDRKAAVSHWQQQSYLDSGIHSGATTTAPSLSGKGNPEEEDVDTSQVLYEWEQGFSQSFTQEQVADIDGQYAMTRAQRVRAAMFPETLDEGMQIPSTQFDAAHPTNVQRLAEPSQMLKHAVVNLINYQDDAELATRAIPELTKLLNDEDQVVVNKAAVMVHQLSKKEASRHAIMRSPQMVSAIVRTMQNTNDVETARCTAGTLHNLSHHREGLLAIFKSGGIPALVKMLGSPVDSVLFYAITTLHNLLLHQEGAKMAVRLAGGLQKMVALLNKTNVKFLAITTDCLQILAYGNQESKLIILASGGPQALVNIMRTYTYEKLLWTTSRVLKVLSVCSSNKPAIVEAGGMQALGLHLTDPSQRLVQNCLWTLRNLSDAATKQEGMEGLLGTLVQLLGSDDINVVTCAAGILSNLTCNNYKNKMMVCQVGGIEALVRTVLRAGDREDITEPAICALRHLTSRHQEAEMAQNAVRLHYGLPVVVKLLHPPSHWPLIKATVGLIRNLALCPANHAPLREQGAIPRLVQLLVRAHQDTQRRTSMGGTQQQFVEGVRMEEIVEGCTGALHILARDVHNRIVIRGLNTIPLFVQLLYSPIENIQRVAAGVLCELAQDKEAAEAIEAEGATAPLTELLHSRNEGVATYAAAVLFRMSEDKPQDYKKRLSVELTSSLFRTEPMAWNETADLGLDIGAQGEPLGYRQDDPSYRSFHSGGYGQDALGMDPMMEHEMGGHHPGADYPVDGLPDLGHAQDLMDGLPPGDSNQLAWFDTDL

B1: I-542 (peptide)
peptide: XDTXDEAAFQXFXQ
modifications: not fully specified; N-terminal Ac; PL3 at 1; TOMe at 3; B5 at 4; S8 at 11; BztA at 13; C-terminal NH2; staples PL3(1)-B5(4) and B5(4)-S8(11) by olefin metathesis
B2: I-647 (peptide)
peptide: Ac-[αAllylPro]DI[B5(9)]DELAFQ[S8]F[Bta]Q-NH2
modifications: staple 1-4, 4-11
notes: Stapled peptide composition; also called Ac-PL3-Asp-Ile-B5-Asp-Glu-Leu-Ala-Phe-Gln-S8-Phe-BztA-Gln-NH2
B3: I-649 (peptide)
peptide: Ac-[αAllylPro]DI[B5(9)]DEFAFQ[S8]F[Bta]Q-NH2
modifications: staple 1-4, 4-11
notes: Stapled peptide composition; also called Ac-PL3-Asp-Ile-B5-Asp-Glu-Phe-Ala-Phe-Gln-S8-Phe-BztA-Gln-NH2
B4: I-651 (peptide)
peptide: Ac-[αAllylPro]DI[B5(16)]DESAFQ[S8]F[Bta]Q-NH2
modifications: staple 1-4, 4-11
notes: Stapled peptide composition; also called Ac-PL3-Asp-Ile-B5-Asp-Glu-Ser-Ala-Phe-Gln-S8-Phe-BztA-Gln-NH2
B5: I-650 (peptide)
peptide: Ac-[αAllylPro]DI[B5(16)]DEFAFQ[S8]F[Bta]Q-NH2
modifications: staple 1-4, 4-11
notes: as for B3
B6: I-638 (peptide)
peptide: XDIXDEAAFQXFXP
modifications: not fully specified; As printed: Ac-PL3-Asp-Ile-B5-Asp-Glu-Ala-Ala-Phe-Gln-S8-Phe-BztA-Pro-NH2; N-terminal Ac, C-terminal NH2; PL3 (1), B5 (4), S8 (11), BztA (13); staples PL3-B5 and B5-S8 by olefin metathesis
notes: Stapled peptide composition; also called Ac-PL3-Asp-Ile-B5-Asp-Glu-Ala-Ala-Phe-Gln-S8-Phe-BztA-Pro-NH2
B7: I-648 (peptide)
peptide: Ac-[αAllylPro]DI[B5(9)]DELAFQ[S8]F[Bta]Q-NH2
modifications: staple 1-4, 4-11
notes: as for B2
B8: I-637 (peptide)
peptide: XDIXDEAAFQXFXP
modifications: not fully specified; As printed: Ac-PL3-Asp-Ile-B5-Asp-Glu-Ala-Ala-Phe-Gln-S8-Phe-BztA-Pro-NH2; N-terminal Ac, C-terminal NH2; PL3 (1), B5 (4), S8 (11), BztA (13); staples PL3-B5 and B5-S8 by olefin metathesis
notes: as for B6
B9: I-640 (peptide)
peptide: XDIXDEAAFQXFXS
modifications: not fully specified; As printed: Ac-PL3-Asp-Ile-B5-Asp-Glu-Ala-Ala-Phe-Gln-S8-Phe-BztA-Ser-NH2; N-terminal Ac, C-terminal NH2; PL3 (1), B5 (4), S8 (11), BztA (13); staples PL3-B5 and B5-S8 by olefin metathesis
notes: Stapled peptide composition; also called Ac-PL3-Asp-Ile-B5-Asp-Glu-Ala-Ala-Phe-Gln-S8-Phe-BztA-Ser-NH2
B10: I-645 (peptide)
peptide: Ac-[αAllylPro]DI[B5(9)]DEAAFQ[S8]F[Bta]V-NH2
modifications: staple 1-4, 4-11
notes: Stapled peptide composition; also called Ac-PL3-Asp-Ile-B5-Asp-Glu-Ala-Ala-Phe-Gln-S8-Phe-BztA-Val-NH2
B11: I-641 (peptide)
peptide: XDIXDEAAFQXFXT
modifications: not fully specified; As printed: Ac-PL3-Asp-Ile-B5-Asp-Glu-Ala-Ala-Phe-Gln-S8-Phe-BztA-Thr-NH2; N-terminal Ac, C-terminal NH2; PL3 (1), B5 (4), S8 (11), BztA (13); staples PL3-B5 and B5-S8 by olefin metathesis
notes: Stapled peptide composition; also called Ac-PL3-Asp-Ile-B5-Asp-Glu-Ala-Ala-Phe-Gln-S8-Phe-BztA-Thr-NH2
B12: I-635 (peptide)
peptide: Ac-[αAllylPro]DI[B5(16)]DEAAFQ[S8]F[Bta]F-NH2
modifications: staple 1-4, 4-11
notes: Stapled peptide composition; also called Ac-PL3-Asp-Ile-B5-Asp-Glu-Ala-Ala-Phe-Gln-S8-Phe-BztA-Phe-NH2

Starred links: 1 amine or outer side, 2 acyl side, 3 side chain; linkers in the order of their positions; H or OH if unused. Positions of bridges follow the written chain, without caps; N, C: chain ends. Non-standard residues stand in square brackets, D forms with d. Primed or numbered codes have the meaning given here. B5(16) = 2-amino-2-(pent-4-en-1-yl)hept-6-enoic acid = 2,2-bis(4-pentenyl)glycine (stitching residue), C=CCCCC(CCCC=C)(N[*:1])C(=O)[*:2]; B5(21) = 2-amino-2-(pent-4-en-1-yl)hept-6-enoic acid, bis(4-pentenyl)glycine (stitching residue), C=CCCCC(CCCC=C)(N[*:1])C(=O)[*:2]; B5(9) = 2-amino-2-(pent-4-en-1-yl)hept-6-enoic acid (2,2-bis(4-pentenyl)glycine), C=CCCCC(CCCC=C)(N[*:1])C(=O)[*:2]; (NHCyBu)AsnR = N4-cyclobutyl-L-asparagine, O=C(C[C@H](N[*:1])C(=O)[*:2])NC1CCC1; (NHCyPr)AsnR = N4-cyclopropyl-L-asparagine, O=C(C[C@H](N[*:1])C(=O)[*:2])NC1CC1; (NHiPr)AsnR = N4-isopropyl-L-asparagine, CC(C)NC(=O)C[C@H](N[*:1])C(=O)[*:2]; (NHnPr)AsnR = N4-propyl-L-asparagine, CCCNC(=O)C[C@H](N[*:1])C(=O)[*:2]; (NHEt)AsnR = N4-ethyl-L-asparagine, CCNC(=O)C[C@H](N[*:1])C(=O)[*:2]; (NHMe)AsnR = N4-methyl-L-asparagine, CNC(=O)C[C@H](N[*:1])C(=O)[*:2]; TOMe = O-methyl-L-threonine, CO[C@H](C)[C@H](N[*:1])C(=O)[*:2]; Bta = N[C@@H](Cc1csc2ccccc12)C(=O)O; αAllylPro = C=CC[C@@]1(C(=O)O)CCCN1; S8 = C=CCCCCCC[C@](C)(N)C(=O)O

The first test has as its target T1, full-length beta-Catenin (Uniprot ID …). Kind of test: fluorescence polarization competition; full-length beta-catenin with 5FAM-labeled TCF4 residues 10-53 probe as competitor. The protocol: (§1) The plate was incubated protected from light for 60 minutes at 20° C. prior to read. Reads were performed on a CLARIOstar plate reader (BMG Labtech) in duplicate, and data were fitted to a 1:1 binding model with hill slope using an in-house script. All provided concentrations are final concentrations.
As to B1, the IC50 was 109 nM.

Molecule Ac-[αAllylPro]DA[B5(21)][(NHnPr)AsnR]DAAFV[S8]F[Bta]Q-NH2 (staple 1-4, 4-11) [I-537] yielded an IC50 of 5000 nM.

In turn, Ac-[αAllylPro]DA[B5(21)][(NHiPr)AsnR]DAAFV[S8]F[Bta]Q-NH2 (staple 1-4, 4-11) [I-535] returned an IC50 of 5000 nM. That is a single-digit micromolar value.

In turn, Ac-[αAllylPro]DA[B5(21)][(NHMe)AsnR]DAAFV[S8]F[Bta]Q-NH2 (staple 1-4, 4-11) [I-540] yielded a half-maximal inhibitory concentration (IC50) of 5000 nM.

The molecule Ac-[αAllylPro]DA[B5(21)][(NHEt)AsnR]DAAFV[S8]F[Bta]Q-NH2 (staple 1-4, 4-11) [I-536] had an IC50 of 4470 nM.

As to Ac-[αAllylPro]D[TOMe][B5(21)]DEAAFQ[S8]F[Bta]Q-NH2 (staple 1-4, 4-11, It has the same description as I-542) [I-541], the IC50 is 180 nM.

Ac-[αAllylPro]DA[B5(21)][(NHCyPr)AsnR]DAAFV[S8]F[Bta]Q-NH2 (staple 1-4, 4-11) [I-538]: the IC50 was 5000 nM. This IC50 lies about 28-fold higher than the previous one.

In turn, Ac-[αAllylPro]DA[B5(21)][(NHCyBu)AsnR]DAAFV[S8]F[Bta]Q-NH2 (staple 1-4, 4-11) [I-539] showed an IC50 of 5000 nM. This counts as single-digit micromolar.

For the next test, the target named is T2, full-length beta-Catenin (Uniprot ID …). Kind of test: fluorescence polarization competition; full-length beta-catenin, competitor 5FAM-TCF4 10-53. The procedure:
as §1
Molecule B2 showed an IC50 of 445 nM. In other words, the sub-micromolar range.

B3 came in with an IC50 of 209 nM.

Turning to B4, the IC50 came out at 186 nM.

As to B5, the IC50 is 137 nM. This IC50 and that of the molecule before are within 1.5-fold of each other.

Consider B6, for which the IC50 stood at 3880 nM. This IC50 lies about 28-fold higher than the previous one.

B7 showed an IC50 of 233 nM.

The molecule B8 gave an IC50 of 5000 nM.

As to B9, the IC50 is 87 nM.

In turn, B10 showed a half-maximal inhibitory concentration (IC50) of 395 nM. Against the preceding molecule, the IC50 is about 4.5-fold higher.

The molecule B11 showed an IC50 of 122 nM.

Molecule B12 showed an IC50 of 171 nM. The IC50 values of the last two molecules are within 1.5-fold of each other.
